To fix the notation:
B1: IgG1-F1370 (antibody)
heavy: QVQLQESGPGLVKPSETLSLTCAVSGHSISHDHAWSWVRQPPGEGLEWIGFISYSGITNYNPSLQGRVTISRDNSKNTLYLQMNSLRAEDTAVYYCARSLARTTAMDYWGEGTLVTVSSASTKGPSVFPLAPSSKSTSGGTAALGCLVKDYFPEPVTVSWNSGALTSGVHTFPAVLQSSGLYSLSSVVTVPSSSLGTQTYICNVNHKPSNTKVDKKVEPKSCDKTHTCPPCPAPELRGGPKVFLFPPKPKDTLYITREPEVTCVVVDVSHEDPEVKFNWYVDGVEVHNAKTKPREEQYNSTYRVVSVLTVLHQDWLNGKEYKCKVSNKALPAPIEKTISKAKGQPREPQVYTLPPSRDELTKNQVSLTCLVKGFYPSDIAVEWESNGQPENNYKTTPPVLDSDGSFFLYSKLTVDKSRWQQGNVFSCSVMHEALDYHVTKKELSLSP
light: not shown
B2: IgG1-F1413 (antibody)
heavy: B1 heavy with T309Q, Q313A
light: not shown
B3: IgG1-F1434 (antibody)
heavy: B1 heavy with T256S, T309E, V310P, K440R
light: not shown
B4: IgG1-F1425 (antibody)
heavy: B1 heavy with T256S, V305D, V310P, K440R
light: not shown
B5: IgG1-F1371 (antibody)
heavy: B1 heavy with K440R
light: not shown
B6: IgG1-F1378 (antibody)
heavy: B1 heavy with T256S, E258T, D435H, V438T, K440Q, E442S
light: not shown
B7: IgG1-F1420 (antibody)
heavy: B1 heavy with T256S, E258T, Y436W
light: not shown
B8: IgG1-F1416 (antibody)
heavy: B1 heavy with V310P
light: not shown
B9: IgG1-F1424 (antibody)
heavy: B1 heavy with T256S, V304E, V310P, K440R
light: not shown
B10: IgG1-F1426 (antibody)
heavy: B1 heavy with T256S, V305E, V310P, K440R
light: not shown
B11: IgG1-F1421 (antibody)
heavy: QVQLQESGPGLVKPSETLSLTCAVSGHSISHDHAWSWVRQPPGEGLEWIGFISYSGITNYNPSLQGRVTISRDNSKNTLYLQMNSLRAEDTAVYYCARSLARTTAMDYWGEGTLVTVSSASTKGPSVFPLAPSSKSTSGGTAALGCLVKDYFPEPVTVSWNSGALTSGVHTFPAVLQSSGLYSLSSVVTVPSSSLGTQTYICNVNHKPSNTKVDKKVEPKSCDKTHTCPPCPAPELLGGPSVFLFPPKPKDTLMISRTPEVTCVVVDVSHEDPEVKFNWYVDGVEVHNAKTKPREEQYNSTYRVVSVLTPLHQDWLNGKEYKCKVSNKALPAPIEKTISKAKGQPREPQVYTLPPSRDELTKNQVSLTCLVKGFYPSDIAVEWESNGQPENNYKTTPPVLDSDGSFFLYSKLTVDKSRWQQGNVFSCSVLHEALHWHYTQKSLSLSP
light: not shown
B12: IgG1-F1423 (antibody)
heavy: B1 heavy with T256S, V304D, V310P, K440R
light: not shown
B13: IgG1-F1419 (antibody)
heavy: B1 heavy with T256S, E258T, Y436W, K440R
light: not shown
B14: IgG1-F1433 (antibody)
heavy: B1 heavy with T256S, T309D, V310P, K440R
light: not shown
B15: IgG1-F1430 (antibody)
heavy: B1 heavy with T256S, V307E, V310P, K440R
light: not shown
B16: IgG1-F1422 (antibody)
heavy: B1 heavy with T256S, V310P, K440R
light: not shown
B17: IgG1-F1428 (antibody)
heavy: B1 heavy with T256S, S306E, V310P, K440R
light: not shown
B18: IgG1-F1379 (antibody)
heavy: B1 heavy with T256S, E258T, D435H, V438F, K440Q, E442S
light: not shown

Where a chain is given by its changes, count along the chain named.

In the first experiment the target is T1, soluble human FcRn (human, UniProt P55899 24-297; P61769 21-119).
T1 construct: Heterodimer of alpha chain and beta2-microglobulin; also called hFcRn
T1 sequence (P55899 24-297 limits assumed, chain 1 of 2): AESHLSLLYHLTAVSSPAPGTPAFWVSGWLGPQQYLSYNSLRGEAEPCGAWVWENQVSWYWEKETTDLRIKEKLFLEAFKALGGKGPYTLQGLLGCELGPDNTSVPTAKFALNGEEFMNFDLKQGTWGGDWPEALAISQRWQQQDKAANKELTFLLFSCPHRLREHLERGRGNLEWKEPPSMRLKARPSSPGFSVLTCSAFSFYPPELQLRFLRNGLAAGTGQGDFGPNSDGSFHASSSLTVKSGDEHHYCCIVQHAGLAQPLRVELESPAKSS
T1 sequence (P61769 21-119 limits assumed, chain 2 of 2): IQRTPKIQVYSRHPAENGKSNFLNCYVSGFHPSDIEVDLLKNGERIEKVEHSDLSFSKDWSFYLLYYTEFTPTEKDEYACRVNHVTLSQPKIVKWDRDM
Kind of experiment: SPR (Biacore), pH 7.0, 25 C.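 Note: antibodies captured on a protein L-coated CM4 chip with human FcRn injected as analyte, KD obtained from ka and kd fitted to sensorgrams, in sodium phosphate buffer.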
Experimental: An appropriate amount of protein L (ACTIGEN) was immobilized onto Sensor chip CM4 (GE Healthcare) by the amino coupling method, and the chip was allowed to capture an antibody of interest. Then, diluted FcRn solutions and running buffer (as a reference solution) were injected to allow human FcRn to interact with the antibody captured on the sensor chip. The running buffer used comprised 50 mmol/l sodium phosphate, 150 mmol/l NaCl, and 0.05% (w/v) Tween20 (pH 7.0). FcRn was diluted using each buffer. The chip was regenerated using 10 mmol/l glycine-HCl (pH 1.5). Assays were carried out exclusively at 25 degrees C. The association rate constant ka (1/Ms) and dissociation rate constant kd (1/s), both of which are kinetic parameters, were calculated based on the sensorgrams obtained in the assays, and KD (M) of each antibody for human FcRn was determined from these values. Each parameter was calculated using Biacore T100 Evaluation Software (GE Healthcare).
The Kd is the concentration at which binding is half-saturated. A high value points to lower affinity. B1: the Kd is 0.091 µM.

Consider B2, for which binding was characterised by a dissociation constant (Kd) of 0.037 µM.

As to B3, the Kd was determined as 0.036 µM.

As for B4, binding was put at a Kd of 0.019 µM.

For the molecule B5, the Kd stood at 0.11 µM.

B6 gave a dissociation constant Kd of 0.36 µM.

B7: the Kd is 0.13 µM.

The molecule B8 registered an equilibrium dissociation constant (Kd) of 0.013 µM.

B9 had a dissociation constant Kd of 0.016 µM.

For the molecule B10, the equilibrium dissociation constant (Kd) turned out to be 0.018 µM.

B11 had a Kd of 0.032 µM.

B12 displayed a Kd of 0.016 µM.

In turn, B13 had a Kd of 0.15 µM.

Turning to B14, binding was characterised by a dissociation constant (Kd) of 0.045 µM.

B15 showed a Kd of 0.031 µM.

B16 came in with a Kd of 0.019 µM.

With B17, binding was characterised by a dissociation constant (Kd) of 0.015 µM.

Take B18: binding was put at a Kd of 0.28 µM.

A further experiment deals with T1, soluble human FcRn. In words: SPR (Biacore), pH 7.0. (In general: SPR reads the build-up and loss of mass on a sensor chip optically.)
Molecule B1 yielded a Kd of 0.091 µM.

B2: the Kd is 0.037 µM.

In turn, B5 showed a dissociation constant (Kd) of 0.11 µM.

Molecule B6 showed a Kd of 0.36 µM.

B7 had a dissociation constant Kd of 0.13 µM.

As to B8, the Kd was 0.013 µM.

B13 registered a Kd of 0.15 µM.

Molecule B18 came in with a Kd of 0.28 µM.

Source of the values: patent publication US20140363428A1 (Chugai, published 2014).
